B1: NGF: 2.5 S-NGF obtained from mouse submaxillary gland (SIGMA reference N-6009) (protein, UniProt P01139 122-241, looked up)
Beta-nerve growth factor: SSTHPVFHMGEFSVCDSVSVWVGDKTTATDIKGKEVTVLAEVNINNSVFRQYFFETKCRASNPVESGCRGIDSKHWNSYCTTTHTFVKALTTDEKQAAWRFIRIDTACVCVLSRKATRRG
modifications: Beta-nerve growth factor

Legend:
TNBS-treated rats = experiment: Colonic distension-induced pain threshold in TNBS-treated rats (chronic colonic allodynia); assay type: in vivo, rat; settings: 30 mg/kg s.c. in 20% cyclodextrin 30 minutes before distension, mean +/- SEM (n=7-8), vehicle 17.8+/-1.8, p<0.01
Protocol: (§1) Adult male rats of the Wistar strain, 320 to 350 g in weight (obtained from the Janvier farm, Le Genest-Saint-Isle, France) were used for all the experiments. They were kept under controlled conditions of temperature (20+/−1° C.), humidity (50+/−5%) and lighting (light from 7 to 19 hours). The animals were starved of food for 18 hours before the beginning of the experiments, the supply of water being maintained.
(§2) Distension studies were carried out on waking rats in isobaric mode, using pressure increments of 5 mm of mercury every thirty seconds. A latex balloon, placed in the distal part of the colon is linked to an electronic barostat. The pain threshold is defined as the pressure inducing the first abdominal contraction. Each rat is subjected to four distension trials so as to increase the reproducibility of the test. The mean of the pressure values is calculated on the thresholds observed for the four successive distensions.
A laparotomy is carried out on rats anaesthetized with acepromazine (12 mg/kg i.p.) and ketamine (80 mg/kg i.p.) so as to inject into the proximal colon the trinitrobenzenesulphonic acid (TNBS) (50 mg/kg) in ethanol at 30%. The rats are then placed in individual cages. The colonic distension experiment is performed seven days after the administration of TNBS. […]

naïve rats = experiment: Colonic distension-induced pain threshold in naïve rats (isobaric balloon distension); assay type: in vivo, rat
Protocol: as §1, §2
2.5 S-NGF obtained from mouse submaxillary gland (marketed by the company SIGMA under the reference N-6009) is dissolved in 0.1% bovine serum albumin (BSA). Into the naïve rats, 0.1 ng to 100 ng of NGF are injected by the i.p. route, 30 minutes before the distension.
Naïve rats were subjected to distension experiments with a balloon placed in the distal part of the colon. […]

Molecule | colonic pain threshold (TNBS-treated rats) | colonic pain threshold (naïve rats; naïve Wistar rats, 1 ng of NGF i.p. 30 minutes before distension, control (BSA) about 44 mmHg) | effect on threshold of pain in the colon (naïve rats; naïve rats, increasing doses of NGF (0.1 ng to 100 ng) i.p.)
O=C1c2cccc3cc([N+](=O)[O-])cc(c23)C(=O)N1NCCO [ALE-0540] | 37.6+/−4.5 mmHg |  | 
B1 |  | less than 20 mmHg | significant reduction

Source: patent publication US20040071701A1, “Use of NGF-antagonists for the prevention or treatment of chronic visceral pain” (priority 2002, published 2004)
